Measured values from the nanobody polyreactivity screen of Harvey et al. (2022).

Assay: yeast display, Sf9 membrane polyspecificity reagent, FACS + sequencing; frameworks hold sequencing errors
Procedure, shortened: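 Using colony PCR, genes from sorted yeast display clones were amplified, then sequenced on MiSeq at 2 × 250 and filtered by CDR length. The clones had been stained with 10% biotinylated, detergent-solubilized Sf9 membrane reagent for 1 hour at 4 °C and sorted by FACS into low and high (top ~1%) gates on anti-HA and streptavidin fluorescence. Polyreactivity labels come from the gate of origin.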

Sequence | polyreactivity (PSR sort gate)
HVQLVESGGGLVQAGGSLRLSCAASGRTFGAYAMGWYRQAPGKERELVAAISKSGGRTYYADSVKGRFTISRDNAKNTVYLQMNSLKPEDSAVYYCNARGFRGEYDYWGQGTQVTVSS | high polyreactivity
QVQLVESGGGLVQAGGSLRLSCAASGRIFKRYAMGWYRQAPGKERELVAAITRSGTRTYYADSVKGRFTISRDNAKNTVYLQMNSLKPEDTAVYYCAAALGWYSAFGYWGQGTLVTVSS | high polyreactivity
QVQLVESGGGLVQAGGSLRLSCAASGRIFSRYVRGWYRQAPGKEREFVASITWSGSSTYYADSVKGRFTISRDNAKNTVYLQMNSLKPEDTAVYYCAALGLLSPSPWGTHISEYDSWGQGTQVTVSS | low polyreactivity
QVQLVDSGGGLVQAGGSLRLSCAASGSIFSVYAMGWYRQAPGKERELVAAISSRGGSTYYADSVKGRFTISRDNAKNTVYLQMNSLKPEDTAVYYCAASRQSQRGYWGQGTQVTVSS | high polyreactivity
QVQLVESGGGLVQAGGSLRLSCAASGITFGPYAMGWYRQAPGKERELVATISSSGGSTYYADSVKGRFTISRDNAKNTVYLQMNSLKPEDTAVYYCAAEYYVISSPSFYEYDYWGQGTQVTVSS | low polyreactivity
QVQLVESGGGLVQAGGSLRLSCAASGTFKWYAMGWYSQAPGKERELDAVISSSGGTTYYADSVKGRFTISRDNAKNTVYLQMNSLKPEDTAVYYCNKRFRSWTTGSPYDYWGQGTQVTVSS | high polyreactivity
QVQHVESGGGLVQAGGSLRLRCAASGITSRYNDMGWSRQAPGKERELVATITWRGVSTYYADSVKGRFTISRDNAKNTVYVQMNSLKPEDTAVYYCAARRPGYYPYKGFDYWGQGTQVTVSS | high polyreactivity
QVQLVESGGGLVQAGGSLRLSCAASGSIFGTNTMGWYRQAPGKERELVAAIRLSDSSTYYADSVKGRFTISRDNAKNTVYLQMNSLKPEDTAVYYCAVDYRAYHYYRYDYWGQGTQVTVSS | low polyreactivity
QVQLVESGGRLVQAGGSLRLSCAASGISFNYYAMGWYRQAPGKEREMVAGITSGGSTYYADSVKGRFTISRDNAKNTVYLQMNSLKTEDTAVYYCATRVRDGSQTPYRRGHSYDYWGQGTQVTVSS | high polyreactivity
QVQLVESGGGLVQAGCSLRLSCAASGLTFYHYTMGWYRQEPGKERDLVAAISRRGGYTYYADSVKGRFTISRDNAKNTVYLQMNSLKPEDTAVYYCAARALRYSRDFDYWGQGTQVTVSS | high polyreactivity
QVQLVESGGGLVQAGGSLRLSCAASGSIFKGYAMGWYRQAPGKERELVAAISGGGGSTYYADSVKGRFTISRDNAKNTVYLQMNSLKPEDTAVYYCNRDDSWSTTGAYDYWGQGTQVTVSS | low polyreactivity
QVQLVESGGGLVQAGGSLRLSCAASGSILADYAMGWYRQGPGKERELVAGISSGGSTNYADSVKGRFTITGDNAKNTVSLQMNSLKPEDTAVYYCNADQDFLFIGYLFDYWGQGTQVTVSS | low polyreactivity
QVQHVESGGGLVQAAGSLRLSCAASGTIFYWYTMGWYRQARGKERELVATITGSGSSTTYADSVKGRFTISRDNAKNSVYLQMNSLKPEDTAVYYCAKVYYIGIRGEYDYWGQGTQVTVSA | low polyreactivity
QVQLVESGGGLVQAGGSLRLSCAASGSTFWLYAIGWYRQAPGTERELVAAIRSGDRTNYADSVKGRFTISRDNAKKTVYLEMNSLKPEDTAVYYCAAVAYLNWTPQYYWGQGTQVTVSS | low polyreactivity
QVQLVESGGGLVQAGGSLRLSCAASGSIFINYVMGWYRQAPGKERELVAAISSIGDSTYYADSVKGRFTISRDNAKNTVYLQMNSLKPEDTAVYYCNAEIPSLKASPLYRYDYWGQGTKVTVSS | high polyreactivity
QVQLVESGGGLVQAGGSLRLSCAASGFTFGENAIGWYRQAPGKERELVAAIRYSGGSTYYADSVKGRFTISRDNAKNTVYLQMNSLKPEDTAVYYCNADTYALGAAVIPGDEYWGQGTQVTVSS | low polyreactivity
QVQLVESGGGLVQAGGSLRLSCAASGSTFLHYAMGWYRQAPGKEREFTYYADSVKGRFTISRDNAKNTVYLHMNSLNPEDTAVYYCNAGPYWSPYGDDFGYWGQGTQVTVSS | low polyreactivity
QVQLVESGGGLVQAGGSLRLSCAASGFTFIRNAMGWYRQAPGKERELVAAISKRGGSTNYADSVKGRFTISRDNAKNTVYLQMNSLKPEDTAVYYCAAGGQVAWLDYYPMDYWGQGTQVTVSS | low polyreactivity
QVQLVDSGGGLVQAGGSLRLSCAASGSIFGSYVMGWYRQAPGKERELVAAISSSGASTYYADSVKGRFTISRDNAKNTVYLQMNSLKPEDTAVYYCAAGYVHLYYFHEYYWGQGTQVTVSS | high polyreactivity
QVQLVESGGGLVQAGGSLRLSCAASGSIFYRYAMGWYRQAPGKESELVAAITQSTDSTYYADSVKGRFTISRDNAKNTVYLQMNSLKPEDTAVYYCAAYLVYYRPYAYGYWGQGTQVTVSS | low polyreactivity
QVQLVESGGGLVQAGGSLRLSCAASGYTIRGYVMGWYRQAPGKERELVAAISASGGRTYYADSVKGRFTISRDNAKNTVYLQMNSLKPEHTAVYYCAASKSKISSLDYWGQGTQVTVSS | high polyreactivity

Sequence | polyreactivity (PSR sort gate)
QVQLVESGGGLVQAGGSLRLSCAASGSTFRTYAMGWYRQAPGKERELVADITWRGGSTYYADSVKGRFTISRDNAKNTVYLQMNSLKPEDTAVYYCATDRGPEVVLYDYWGQGTQVTVSS | low polyreactivity
QVQLVESGGGLVQAGGSLRLSCAASGRIFLGNVMGWYRQAPGKERELVAAISKSGGTTYYADSVKGRFTISRDNAKNTVYLQMNSLKPEDTAVYYCAAYGSWRTYHYYYWGQGTQVTVSS | high polyreactivity
QVQLLESGGGLVQAGGSLRLSCAASGRIFWNNAMGWYRQAPGKERELVAVISTRGGRTYYADSVKGRFTISRDNANNTVNLQMNSLKPEDTAVYYCAAEFLNKAVGGVTSIYDSWGQGTQVTVSS | low polyreactivity
PVQLVESGGGLVQAGGSLRLSCAASGSIFASYAMGWYREAPGKERELVAAISSSSGSTYYADSVKGRFTISRDNAKNTVYLQMTSLKPEDTAVYYCAAESGRRIKYWRGYYYWGQGTQVTVSS | low polyreactivity
QGQLVESGGGLVQAGGSLRLSCAASGGTFEYNTMGWYRQAPGKERELVAAIRSSTVRTYYADSVKGRFTISRDNAKNTVYLQMNSLKPEDTAVYYCAATRYRKYWGQGTQVTVTS | high polyreactivity
QVQLVESGGGLVQAGGSLRLSCAASGSTFVTYAMGWYRQAPGKERELVAAIDSGGNTNYADSVKGRFTISRDNAKNTVYLQMNSLKPEDTAVYYCAVRPYELHRLDDQPGGDDYWGQGTQVTVSS | low polyreactivity
HVQLLESGGGLVQAGGSLRLSCAASGITFQFYPKGWYRQAPGKERELVAAISYSGGSTYYADSVKGRFTISRDNAKNTVYLQMNSLKAADTAVYYCAAVSYSSRGNYWGQGTQVTVSS | high polyreactivity
QVQHVESVGGLVQAGGSLRLSSATSGSIFITNAMGCYRQPPGKESELVAAIRDSGDRTYYADSVKGRFTISRDNGKNNVSLQMNSLKPEDTAVYYCNARCQEPLNYDYWGQGTQGTVSS | low polyreactivity
QVQLVESGGWLVQAGGSLRLSCAASGFIFYRYAMGWYRPAPGKERELDAAISGSGGRTYYADSVKGRFTISRDNAKNTVYLQMNSLKPEDTAVYYCAADKQAYVTDDYWGQGTQVTVSS | high polyreactivity
QVQLEESGGRLVQAGGSLRLSCAASGGIFADYAMGWDRPAPGKERELVADISARGGSTYYADSVKGRFTISRDNAKNTVYLQMNSLKPEDTAVYYCAADALGYDYYYWGQGTQVTVSS | low polyreactivity
QVQLVESGGGLVQAGGSLRLICAASGSTFPRNAMGWYRQAPGKERELVATITSSGGGTYYADSVKGRFTISRDNAMNTVYLQMNSLKPEDTAVYYCNADGPAGDAFDYWGQGTQVTVSS | low polyreactivity
QVQLVESGGGLVQAGGSLRLSCAASGRIFRRYAMGWYRQAPGKERELVASISSGGSTNYADSVKGRFTISRDNAKNTVYLQMNSLKPEDTAVYYCNVYYGYFRSRYGYWGQGTQVTVSS | high polyreactivity
QVQLVESGGGLVQAGGSLRLSCAASGIIFSSNAMGWYRQAPGKERELVAAISRRGGSTYYADSVKGRFTISRDNAKNTVYLQMNSLKPEDTAVYYCNALLYNGAGYDYWGQGSQVTVSS | high polyreactivity
QVQLVESGGGLVQEGGSLLLSFAASGSTFGYYAMGWYRQAPGKEREFVAAISDSGDGTYYADSVKGRFTISRDNEKNTVYLQMNSLKQEDTAVYYCAAEAPYYFGWWYGYKYDSWGQGTQVTVSW | high polyreactivity
QVQLVESGGGLVQAGGSLRLSCAASGSTFKRYAMGWYRQAPGKERELVADISRGVRTYYADSVKGRFTISRDNAKNTVYLQMNSLKPEDTAVYYCATKYHRNTYEYEYWGQGTQVTVSS | high polyreactivity
QVQLVESGGGLVQAGGSLRLSCAASGSIFTGYDMGWYRQAPGKERELVAVISTAGRTYYADSVKGRFTISRDNAKNTVYLQMNSLKPEDTAVYYCAKRSYSKDQPRYGYWGQGTQVTVSS | low polyreactivity
QVQLVESGGGLVQAGGSLRLSCAASGSTFYKNAMGWYRQAPGKERELVAAITRSGGSTYYADSVKGRFTISRDNAKNTVYLQMNSLKPVDTAVYYCAYYPYGYDYWGQGTQVTVSS | high polyreactivity
QVQLVASGGGLLQAGGSLRLSCAASGSIVGLYAMGWYRQAPGNETELVAAISWSAGRTYYADTVKGRFTISRDNAKNTVYLQMNSLIPEETAVYYCNAPYLHYVFVFTDYSQRYDYWGQGTQVTVSS | high polyreactivity
QVQLVESGGGLVQAGGSLRLSCAASGSIFGPYMGWYRQAPGKERELVASVVSTYYADSVKGRFTISRDNAKNTVYLQMNSLKPEDTAVYYCNTQDTKNKSSVFVPSDYWGQGTQVTVSS | low polyreactivity
QVQLVESGGGLVQAGGSLRLSCAASVRTFWYNAMGWYRQAPGKERELVAVISSGAITYYADSVKGRFTISRDNAKNTVYLQMNSLKPEDTAVYYCNAQRRGTYYWGQGTQVTVSS | high polyreactivity
